The record followed here is the supplement of paper PMC7125110.

First the molecules themselves.
B1: glmS ribozyme (parent)
chain: AUAAAAGCGCCAGAACUACAGAAAUGUAGUUGACGAGGAGGAGGUUUAUCGAAUUUUCGGCGGAUGCCUCCAAA

What all share (conditions): with glucosamine-6-phosphate
Variants of B1 are the subject of series [1]. The series is described as follows: kcat; higher = faster cleavage; RNA array. In short, it runs like this: (§1)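 Tiles bearing barcoded ribozyme variants, transcribed in situ by E. coli RNA polymerase on sequenced MiSeq chips, were imaged over ~14 h at 37 °C using a hybridised Cy3 probe. Glucosamine-6-phosphate was supplied at 40 μM to 10 mM in HEPES/KCl/Mg(OAc)2 buffer. kobs came from one- or two-exponential decay fits to normalised per-tile medians, and weighted Michaelis–Menten fits then provided kcat and KM.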

The variants in series [2] derive from B1. The series is described as follows: KM; higher = weaker cofactor use; RNA array. Summed up: as §1
The variants in series [3] derive from B1. The series is described as follows: self-cleavage kobs at 10000 uM GlcN6P; higher = faster cleavage; RNA array. In short, it runs like this: as §1
In series [4] the parent is B1. The series is described as follows: self-cleavage kobs at 2500 uM GlcN6P; higher = faster cleavage; RNA array. In short, it runs like this:
as §1

Series [5] covers variants of B1. The series is described as follows: self-cleavage kobs at 40 uM GlcN6P; higher = faster cleavage; RNA array. Summed up:
as §1

Series [6] covers variants of B1. The experiment in a line: self-cleavage kobs at 160 uM GlcN6P; higher = faster cleavage; RNA array. In short, it runs like this: as §1
Series [7] covers variants of B1. The experiment in a line: self-cleavage kobs at 640 uM GlcN6P; higher = faster cleavage; RNA array. Summed up:
as §1

± gives the standard error. For some assays here: This sample holds only a part of the variants without activity.

In general, kcat refers to the number of substrate molecules converted per active site and unit of time at saturation. By KM is commonly meant the concentration of substrate that gives half-maximal velocity. Consider A6U U30C U31G, for which, in the series with glucosamine-6-phosphate [1], the kcat is 9.88e-05 ± 6.8e-06 s⁻¹. Also, the KM with glucosamine-6-phosphate [2] was found to be 7220 ± 1100 µM. Besides, in the series with glucosamine-6-phosphate [3], the “self-cleavage kobs at 10000 uM GlcN6P” value turned out to be 5.74e-05 ± 1.6e-05 s⁻¹.
Turning to A52U A64G, in the series with glucosamine-6-phosphate [1], the kcat was 0.000348 ± 8.9e-05 s⁻¹. Further, the “self-cleavage kobs at 2500 uM GlcN6P” value in the series with glucosamine-6-phosphate [4] was determined as 0.00023 ± 3.8e-05 s⁻¹. Besides, the “self-cleavage kobs at 10000 uM GlcN6P” value in the series with glucosamine-6-phosphate [3] turned out to be 0.000262 ± 3.6e-05 s⁻¹.
Turning to A6C U47G, the kcat with glucosamine-6-phosphate [1] was found to be 1.58e-05 ± 2.8e-06 s⁻¹.
As for U2A G29U, the turnover number (kcat) in the series with glucosamine-6-phosphate [1] turned out to be 0.00852 ± 0.0033 s⁻¹. For the same variant, the “self-cleavage kobs at 40 uM GlcN6P” value with glucosamine-6-phosphate [5] was determined as 0.000181 ± 3.8e-05 s⁻¹. In the series with glucosamine-6-phosphate [6], the “self-cleavage kobs at 160 uM GlcN6P” value came to 0.000569 ± 0.00018 s⁻¹. For the same variant, the “self-cleavage kobs at 640 uM GlcN6P” value with glucosamine-6-phosphate [7] was determined as 0.00137 ± 0.00032 s⁻¹. Moreover, the “self-cleavage kobs at 10000 uM GlcN6P” value with glucosamine-6-phosphate [3] came out at 0.00749 ± 0.0017 s⁻¹.
In the case of A15U G38U, the kcat with glucosamine-6-phosphate [1] is below 1e-05 s⁻¹. In the series with glucosamine-6-phosphate [5], the “self-cleavage kobs at 40 uM GlcN6P” value was below 1e-05 s⁻¹. Besides, the “self-cleavage kobs at 160 uM GlcN6P” value in the series with glucosamine-6-phosphate [6] is below 1e-05 s⁻¹.
As for G38A U49A, the kcat in the series with glucosamine-6-phosphate [1] was below 1e-05 s⁻¹. Moreover, the “self-cleavage kobs at 40 uM GlcN6P” value with glucosamine-6-phosphate [5] was below 1e-05 s⁻¹. The “self-cleavage kobs at 10000 uM GlcN6P” value with glucosamine-6-phosphate [3] was below 1e-05 s⁻¹.
A48G U56C: in the series with glucosamine-6-phosphate [1], the turnover number (kcat) was determined as 5.09e-05 ± 1.7e-06 s⁻¹. In the series with glucosamine-6-phosphate [2], the KM was found to be 3700 ± 360 µM. In addition, in the series with glucosamine-6-phosphate [3], the “self-cleavage kobs at 10000 uM GlcN6P” value was determined as 3.71e-05 ± 1.1e-05 s⁻¹.
With A53U C58U, in the series with glucosamine-6-phosphate [1], the kcat was 6.85e-05 ± 2.7e-06 s⁻¹. In addition, the KM with glucosamine-6-phosphate [2] came out at 2650 ± 390 µM. Also, in the series with glucosamine-6-phosphate [4], the “self-cleavage kobs at 2500 uM GlcN6P” value is 3.23e-05 ± 1.2e-05 s⁻¹. In addition, the “self-cleavage kobs at 10000 uM GlcN6P” value in the series with glucosamine-6-phosphate [3] worked out at 5.43e-05 ± 6.6e-06 s⁻¹.
In the case of A36C C58A, the catalytic constant (kcat) with glucosamine-6-phosphate [1] came to 1.11e-05 ± 3.9e-06 s⁻¹. For the same variant, in the series with glucosamine-6-phosphate [5], the “self-cleavage kobs at 40 uM GlcN6P” value is below 1e-05 s⁻¹.
Take A48U U54A: the kcat with glucosamine-6-phosphate [1] stood at 0.000682 ± 2.5e-05 s⁻¹. Moreover, the Michaelis-Menten constant (KM) with glucosamine-6-phosphate [2] was determined as 3130 ± 210 µM. In the series with glucosamine-6-phosphate [6], the “self-cleavage kobs at 160 uM GlcN6P” value was 3.6e-05 ± 1.3e-05 s⁻¹. Besides, the “self-cleavage kobs at 640 uM GlcN6P” value with glucosamine-6-phosphate [7] stood at 0.000113 ± 2.8e-05 s⁻¹. For the same variant, the “self-cleavage kobs at 2500 uM GlcN6P” value with glucosamine-6-phosphate [4] turned out to be 0.00029 ± 7.8e-05 s⁻¹. The “self-cleavage kobs at 10000 uM GlcN6P” value with glucosamine-6-phosphate [3] stood at 0.000524 ± 7.9e-05 s⁻¹.
Turning to G29U U31A, the turnover number (kcat) in the series with glucosamine-6-phosphate [1] was found to be 0.0048 ± 0.0017 s⁻¹. The KM with glucosamine-6-phosphate [2] was 3260 ± 1600 µM. The “self-cleavage kobs at 40 uM GlcN6P” value in the series with glucosamine-6-phosphate [5] turned out to be 9.58e-05 ± 1.6e-05 s⁻¹. The “self-cleavage kobs at 160 uM GlcN6P” value with glucosamine-6-phosphate [6] was found to be 0.000159 ± 3.6e-05 s⁻¹. For the same variant, the “self-cleavage kobs at 640 uM GlcN6P” value with glucosamine-6-phosphate [7] was 0.000947 ± 0.00018 s⁻¹. For the same variant, in the series with glucosamine-6-phosphate [4], the “self-cleavage kobs at 2500 uM GlcN6P” value was 0.0019 ± 0.00044 s⁻¹. Moreover, the “self-cleavage kobs at 10000 uM GlcN6P” value with glucosamine-6-phosphate [3] was 0.00369 ± 0.00052 s⁻¹.
Regarding C58G C61A, the kcat in the series with glucosamine-6-phosphate [1] came to 1.85e-05 ± 4e-06 s⁻¹.
For U45G U54A, the kcat in the series with glucosamine-6-phosphate [1] stood at 0.00862 ± 0.0024 s⁻¹. Also, the KM with glucosamine-6-phosphate [2] stood at 2110 ± 950 µM. Moreover, the “self-cleavage kobs at 40 uM GlcN6P” value with glucosamine-6-phosphate [5] was found to be 0.000294 ± 6.7e-05 s⁻¹. The “self-cleavage kobs at 160 uM GlcN6P” value with glucosamine-6-phosphate [6] was found to be 0.000437 ± 0.00014 s⁻¹. Also, the “self-cleavage kobs at 640 uM GlcN6P” value with glucosamine-6-phosphate [7] amounted to 0.00206 ± 0.00071 s⁻¹. In addition, in the series with glucosamine-6-phosphate [4], the “self-cleavage kobs at 2500 uM GlcN6P” value amounted to 0.00456 ± 0.0014 s⁻¹. Also, the “self-cleavage kobs at 10000 uM GlcN6P” value with glucosamine-6-phosphate [3] stood at 0.00721 ± 0.0012 s⁻¹.
On to A12C U31G, for which the catalytic constant (kcat) in the series with glucosamine-6-phosphate [1] worked out at 0.00416 ± 0.00048 s⁻¹. Besides, the KM with glucosamine-6-phosphate [2] is 2340 ± 410 µM. Further, the “self-cleavage kobs at 40 uM GlcN6P” value in the series with glucosamine-6-phosphate [5] was 8.48e-05 ± 1.8e-05 s⁻¹. In the series with glucosamine-6-phosphate [6], the “self-cleavage kobs at 160 uM GlcN6P” value is 0.000245 ± 7.1e-05 s⁻¹. Besides, the “self-cleavage kobs at 640 uM GlcN6P” value with glucosamine-6-phosphate [7] turned out to be 0.00081 ± 0.00015 s⁻¹. Besides, the “self-cleavage kobs at 2500 uM GlcN6P” value with glucosamine-6-phosphate [4] came to 0.00237 ± 0.00075 s⁻¹. Moreover, in the series with glucosamine-6-phosphate [3], the “self-cleavage kobs at 10000 uM GlcN6P” value was 0.00339 ± 0.00051 s⁻¹.
On to U56G G66C, for which, in the series with glucosamine-6-phosphate [1], the turnover number (kcat) came out at 0.000388 ± 2.1e-05 s⁻¹. Also, in the series with glucosamine-6-phosphate [2], the KM turned out to be 1800 ± 300 µM. Besides, in the series with glucosamine-6-phosphate [7], the “self-cleavage kobs at 640 uM GlcN6P” value was 9.51e-05 ± 3.1e-05 s⁻¹. Besides, the “self-cleavage kobs at 2500 uM GlcN6P” value with glucosamine-6-phosphate [4] was 0.000244 ± 4.9e-05 s⁻¹. In addition, in the series with glucosamine-6-phosphate [3], the “self-cleavage kobs at 10000 uM GlcN6P” value is 0.000325 ± 3.9e-05 s⁻¹.
With U31G U56A, in the series with glucosamine-6-phosphate [1], the kcat was 0.00739 ± 0.00043 s⁻¹. The Michaelis-Menten constant (KM) in the series with glucosamine-6-phosphate [2] is 4370 ± 320 µM. In addition, in the series with glucosamine-6-phosphate [5], the “self-cleavage kobs at 40 uM GlcN6P” value was 6.8e-05 ± 9.6e-06 s⁻¹. For the same variant, the “self-cleavage kobs at 160 uM GlcN6P” value in the series with glucosamine-6-phosphate [6] worked out at 0.000307 ± 0.00014 s⁻¹. The “self-cleavage kobs at 640 uM GlcN6P” value with glucosamine-6-phosphate [7] worked out at 0.000903 ± 0.00017 s⁻¹. The “self-cleavage kobs at 2500 uM GlcN6P” value with glucosamine-6-phosphate [4] was determined as 0.00263 ± 0.0008 s⁻¹. In addition, the “self-cleavage kobs at 10000 uM GlcN6P” value in the series with glucosamine-6-phosphate [3] amounted to 0.00519 ± 0.00083 s⁻¹.
In the case of A14U A33C, the kcat in the series with glucosamine-6-phosphate [1] is 7.66e-05 ± 5.8e-06 s⁻¹. In the series with glucosamine-6-phosphate [2], the Michaelis constant (KM) is 1620 ± 560 µM. Besides, the “self-cleavage kobs at 2500 uM GlcN6P” value in the series with glucosamine-6-phosphate [4] is 5.28e-05 ± 1.3e-05 s⁻¹. Moreover, in the series with glucosamine-6-phosphate [3], the “self-cleavage kobs at 10000 uM GlcN6P” value was found to be 6.52e-05 ± 7.3e-06 s⁻¹.
